Source: patent US20110129478A1

Columns and labels:
[1] = target: human CD179b protein on the cell membrane surface of human cancer cell lines (human) (UniProt P15814); assay: cell-based or functional assay
[2] = target: human CD179b protein on the cell membrane surface of human cancer cell lines (human) (UniProt P15814); assay: flow cytometry on human cancer cell lines expressing CD179b, against mouse IgG2a isotype control

Chain of UniProt P15814 (P15814 38-213): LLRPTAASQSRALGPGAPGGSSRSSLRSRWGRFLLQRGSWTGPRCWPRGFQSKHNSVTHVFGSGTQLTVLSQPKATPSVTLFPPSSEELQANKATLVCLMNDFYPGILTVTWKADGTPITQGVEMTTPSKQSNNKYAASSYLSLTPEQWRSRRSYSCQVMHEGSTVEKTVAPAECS

ADCC activity (chromium 51 release), BDCM cells [1]: 32.3%
ADCC activity (chromium 51 release), Namalwa cells [1]: 32.6%
ADCC activity (chromium 51 release), RPMI1788 cells [1]: 28.3%
CDC activity (chromium 51 release), BDCM cells [1]: 21.2%
CDC activity (chromium 51 release), Namalwa cells [1]: 30.5%
CDC activity (chromium 51 release), RPMI1788 cells [1]: 30.5%
fluorescence intensity higher than that of the isotype control [2]: > 10%
Substance: mouse anti-human CD179b antibody (clone name: GA170; manufactured by Santa Cruz Biotechnology)
